{"source": "paper PMC3737563", "about": "“Investigation of DNA sequence recognition by a streptomycete MarR family transcriptional regulator through surface plasmon resonance and X-ray crystallography” (Nucleic Acids Research, 2013)", "key": {"[1]": {"molecular_target": "T1, SCO3205 (MarR family regulator) (Streptomyces coelicolor, UniProt Q9KYU1 1-163)", "T1 sequence": "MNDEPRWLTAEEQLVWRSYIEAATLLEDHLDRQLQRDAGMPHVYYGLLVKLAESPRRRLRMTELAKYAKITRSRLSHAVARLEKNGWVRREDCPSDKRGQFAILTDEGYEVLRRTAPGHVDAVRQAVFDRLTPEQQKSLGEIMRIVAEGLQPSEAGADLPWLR", "experiment": "crystal structure; 2.8 A; one dimer per duplex; SPR (ReDCaT, Biacore T200) in HBS-EP+: 10 mM HEPES pH 7.4, 150 mM NaCl, 3 mM EDTA, 0.05% P20, 20°C", "settings": "protein: recombinant; tags: N-terminal His tag plus TEV site, not removed; chain copies: 2; blunt; self-complementary, 2 copies"}, "[2]": {"molecular_target": "the molecule itself", "experiment": "not stated; purified SCO3205 in solution; the method is told only in the Supplementary Methods"}}}
{"binder": "symmetrized O3204 22-mer (dsDNA) DNA 1: AAAGATTGAGATCTCAATCTTT DNA 2: AAAGATTGAGATCTCAATCTTT", "values": [{"measurement": "binding result", "setting": "[1]", "result": "binds"}]}
{"binder": "SCO3205, MarR family transcriptional regulator from Streptomyces coelicolor (natural protein, UniProt Q9KYU1 1-163, looked up, SCO3205, MarR family transcriptional regulator, Streptomyces coelicolor; the tag was not removed for any experiment; Total deduced molecular mass 20523 Da; also called MFR; source: E. coli BL21 (DE3), purified (HisTrap nickel column, Superdex 75 gel filtration); not shown: His tag, N-terminal, kept) MNDEPRWLTAEEQLVWRSYIEAATLLEDHLDRQLQRDAGMPHVYYGLLVKLAESPRRRLRMTELAKYAKITRSRLSHAVARLEKNGWVRREDCPSDKRGQFAILTDEGYEVLRRTAPGHVDAVRQAVFDRLTPEQQKSLGEIMRIVAEGLQPSEAGADLPWLR", "values": [{"measurement": "stoichiometry N", "setting": "[2]", "result": 2}]}
